# Experimental data as given in patent US20250163149A1, “ANTI-RAGE ANTIBODY” (Swansea University, priority 2022, published 2025).
# B1: hHA9: chimeric humanised format of anti-RAGE antibody clone HA9 (antibody, V domains shown)
# VH: EVKLVETGGGLVQPGRPMKLSCVASGFTLSDHWMNWVRQSPEKGLEWVAQIRNRPYKFEKYYSDSVKGRFTISRDDSKNSVYLQMNNLRAEDMGIYYCSSYRYGLAYWGQGTLVTVST
# VL: DNLLTQSPAILSVSPGERVSFSCRASQTIDTRIHWYQQRKNGSPRLLIRYISESLSGIPSRFSGSGSGTEFTLTINSVESEDIADYYCQQTESWPITFGSGTKLEIK
# Assays:
# SKOV3 cells = assay: Internalisation assay on SKOV3 cells; assay type: cell-based, human; conditions: for uptake (internalisation), secondary antibody detection: 4 h or 24 h at 37° C.
# Description: To screen internalization capacity and traffic to lysosomes of α-RAGE antibodies, all the primary antibodies used in the screening were conjugated to pHAb Amine Reactive Dye following manufacturer's instructions (Promega, UK, Cat. No. G983). This type of dye emits fluorescence when traffics to acidic environments (late endosome and lysosome). For this purpose, 1.5×10^4 SKOV3 cells/well were seeded in 8-well chamber slides (Ibidi) in 300 μl of stripped medium and cultured for 24 h in a humidified, 5% CO2 in air atmosphere incubator at 37° C. After culture, cells were washed in pre-warmed (37° C.) Dulbecco's phosphate buffered saline (DPBS) and slides placed on ice. Cells were treated with control medium or medium containing one of the α-RAGE antibodies conjugated to pH-dye at 10 μg/ml, and the 8-well chamber slides were incubated on ice for 30 minutes. Slides were then transferred to the incubator at 37° C. for 4 h or 24 h. After internalization time, cells were washed in DPBS, fixed in 4% paraformaldehyde for 20 min and permeabilized with 0.1% Triton X-100 (Sigma) for 10 minutes at 4° C. Cells were washed with PBS extensively between all steps, counterstained before imaging with Hoechst (Life Technologies™) and imaged using a LSM710 confocal fluorescence microscopy system (Zeiss, UK). Unconjugated α-RAGE antibodies were also used in the internalisation assay. In this case were visualized using Alexa-fluorophore secondary antibodies as described in the immunofluorescence method.
# [1] = molecular target: T1, RAGE recombinant protein (Human rRAGE) (Homo sapiens, UniProt Q15109); assay: Surface plasmon resonance binding kinetics (Biacore T200), recombinant protein analyte; conditions: analyte RAGE recombinant protein, or RAGE synthetic peptide, not separated
# T1 construct: Human rRAGE=Full-length RAGE recombinant protein from Merck; purchased Merck
# T1 sequence (Q15109 23-404): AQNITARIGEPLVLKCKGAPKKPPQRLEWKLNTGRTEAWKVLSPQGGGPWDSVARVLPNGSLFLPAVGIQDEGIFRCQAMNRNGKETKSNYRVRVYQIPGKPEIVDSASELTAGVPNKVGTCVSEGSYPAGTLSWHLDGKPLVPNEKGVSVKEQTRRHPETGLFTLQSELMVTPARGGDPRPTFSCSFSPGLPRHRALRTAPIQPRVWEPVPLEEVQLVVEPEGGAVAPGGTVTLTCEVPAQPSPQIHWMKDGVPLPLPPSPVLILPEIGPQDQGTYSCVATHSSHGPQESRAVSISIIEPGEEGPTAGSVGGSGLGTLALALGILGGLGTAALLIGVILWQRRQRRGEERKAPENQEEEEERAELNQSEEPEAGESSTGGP
# Description: For on-rate and off-rate screening, Biacore™ T200 system (Cytiva, Uppsala, Sweden) was used to perform SPR analysis with 1×HBS-EP+ buffer (0.01M Hepes, 0.15M NaCl, 0.003M ethylenediaminetetraacetic acid, and 0.05% Surfactant P20, pH 7.4) (BR100669) used as sample and running buffer. The analysis temperature at the sensor chip surface and within the compartment was set to 25° C. Firstly, pH scouting with 10 mM sodium acetate buffer 4.0 (BR-1003-49), 10 mM sodium acetate buffer 4.5 (BR-1003-50), 10 mM sodium acetate buffer 5.0 (BR-1003-51) and 10 mM sodium acetate buffer 5.5 (BR-1003-52) was performed to identify the optimal pH required for ligand (α-RAGE antibodies) immobilization. This was followed by diluting the ligand with the appropriate Acetate buffer to at least 10 μg/mL. The ligand immobilization on the surface Series S Sensor Chip CM5 (29-1496-03, Cytiva) was performed using the Amine Coupling Kit (BR100050, Cytiva) containing 1-Etyhyl-3-(3-dimethylaminopropyl)-carbodiimide hydrochloride (EDC), N-Hydroxysuccinimide (NHS) and 1.0M ethanolamine-HcL PH 8.5 in accordance with the manufacturer's instructions. For each experimental run, the ligand was immobilized in flow cells 2 or 4 while flow cells 1 or 3 were left unmodified. Flow cells 2 and 4 were used as active flow cells while flow cells 1 and 3 were used as reference flow cells. Ligand immobilization levels were typically within the range 500-900 RU for the kinetic experiments and injected with a flow rate of 10 μL/min and contact time of 300 s. Analytes (RAGE recombinant protein and synthetic peptides) were injected for 120 s with a flow rate of 30 μL/min and dissociation time of 600 s run in order of increasing concentration over the reference and active flow cells using a multi-cycle kinetic approach with five-seven concentration range. Following each binding cycle, the surface was regenerated with a 30 s injection of 10 mM Glycine-HcL, pH 2.5 regeneration solution (BR-1003-56), removing the bound antibody with a contact time of 30 s, flow rate of 30 μL/min and a stabilization period of Os. […]
molecule,measurement,setting,value
B1,"uptake (internalisation), secondary antibody detection","SKOV3 cells; compared with other clones and AB11451, listed as chimeric HA9",highest uptake
same,"uptake (internalisation), secondary antibody detection","SKOV3 cells; compared with other clones and AB11451, listed as chimeric-HA9",better uptake
same,uptake of pH-dye conjugated antibody,"SKOV3 cells; pHAb dye conjugate 10 μg/ml, 4 h or 24 h",highest uptake and traffics efficiently to acidic endosomes
same,affinity interaction by SPR (summary statement),[1],weaker affinity
same,affinity interaction by SPR (summary statement),[1]; listed as chimeric-HA9,weaker affinity than AB11451 antibody or the commercial antibodies
